T1: human FSH receptor (human, UniProt P23945 18-695)
T1 sequence (looked up): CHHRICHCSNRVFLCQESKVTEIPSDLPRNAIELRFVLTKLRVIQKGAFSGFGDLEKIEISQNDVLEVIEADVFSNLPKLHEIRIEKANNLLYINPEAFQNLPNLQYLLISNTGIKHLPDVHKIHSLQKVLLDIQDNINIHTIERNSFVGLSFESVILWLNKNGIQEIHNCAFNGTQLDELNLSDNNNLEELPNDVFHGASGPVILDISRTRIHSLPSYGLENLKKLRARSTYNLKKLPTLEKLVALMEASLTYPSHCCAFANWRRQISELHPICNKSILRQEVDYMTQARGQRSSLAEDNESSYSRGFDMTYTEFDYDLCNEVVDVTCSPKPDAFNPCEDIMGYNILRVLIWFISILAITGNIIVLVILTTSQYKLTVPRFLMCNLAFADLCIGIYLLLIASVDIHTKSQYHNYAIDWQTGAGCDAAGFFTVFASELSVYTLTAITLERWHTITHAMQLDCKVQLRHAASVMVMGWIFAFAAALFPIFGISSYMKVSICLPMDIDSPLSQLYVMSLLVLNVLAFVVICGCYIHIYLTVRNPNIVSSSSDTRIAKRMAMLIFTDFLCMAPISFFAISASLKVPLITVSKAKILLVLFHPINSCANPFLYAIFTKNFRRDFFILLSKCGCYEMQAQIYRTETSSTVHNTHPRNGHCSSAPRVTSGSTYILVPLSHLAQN


Biological target: T1, human FSH receptor
Assay: cell-based or functional assay

luciferase signal of the CHO FSH-R/CRE-luc reporter clone, EC50 [IU/ml] | specific activity (in vitro bioactivity in the FSH luciferase assay per FSH content by ELISA), relative to wildtype FSH | Binder
~0.01 | – | wildtype human FSH (follicle stimulating hormone), recombinant, produced in CHO K1 cells (ligand) chain 1: not shown chain 2: CELTNITIAIEKEECRFCISINTTWCAGYCYTRDLVYKDPARPKIQKTCTFKELVYETVRVPGCAHHADSLYTYPVATQCHCGKCDSDSTDCTVRGLGPSYCSFGEMKE
– | ~0.33 fold of the wildtype reference | FSH1208, variant form of FSH containing two N-linked glycosylations at the N-terminus of the alpha subunit (ligand, both asparagine residues of the N-terminal extension … are glycosylated) chain 1: not shown chain 2: CELTNITIAIEKEECRFCISINTTWCAGYCYTRDLVYKDPARPKIQKTCTFKELVYETVRVPGCAHHADSLYTYPVATQCHCGKCDSDSTDCTVRGLGPSYCSFGEMKE
